The target of assay [1] is MBP-CfaE-N (recombinant N-terminal adhesin domain of CfaE fused to an MBP tag) (enterotoxigenic Escherichia coli (ETEC)) (UniProt P25734). The experiment in a line: SPR (Biacore T200), CfaE on CM5 chip, VHH injected, 25 C, 1:1 model.
Assay [2] has as its target CS3 on ETEC strain #100483 (enterotoxigenic Escherichia coli (ETEC)). The assay is described as follows: cell-based or functional assay.
Assay [3] concerns the target CS2 on ETEC strain #201546 (enterotoxigenic Escherichia coli (ETEC)). The experiment in a line: cell-based or functional assay.
Assay [4] addresses T1, CFA/I fimbrial protein (with adhesin subunit CfaE) on ETEC strain H10407 (enterotoxigenic Escherichia coli (ETEC)) (UniProt P25734).
T1 sequence (looked up): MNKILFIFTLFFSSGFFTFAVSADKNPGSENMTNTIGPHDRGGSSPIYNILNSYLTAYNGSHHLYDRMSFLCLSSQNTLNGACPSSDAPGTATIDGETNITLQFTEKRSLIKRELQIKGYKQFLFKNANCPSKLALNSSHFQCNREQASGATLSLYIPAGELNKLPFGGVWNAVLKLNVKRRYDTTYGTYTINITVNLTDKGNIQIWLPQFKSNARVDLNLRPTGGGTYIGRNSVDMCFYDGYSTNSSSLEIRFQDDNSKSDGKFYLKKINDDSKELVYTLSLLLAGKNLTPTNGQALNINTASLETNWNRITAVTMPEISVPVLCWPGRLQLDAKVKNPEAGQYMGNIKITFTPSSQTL
The experiment in a line: cell-based or functional assay.

Assay [5] has as its target CS5 on ETEC strain #204348 (enterotoxigenic Escherichia coli (ETEC)). The experiment in a line: cell-based or functional assay.
The target in assay [6] is CS6 on ETEC strain #100001 (enterotoxigenic Escherichia coli (ETEC)). The assay is described as follows: cell-based or functional assay.
For assay [7], the target named is CS19 on ETEC strain #204648 (enterotoxigenic Escherichia coli (ETEC)). The assay is described as follows: cell-based or functional assay.
The target in assay [8] is CS14 on ETEC strain #400599 (enterotoxigenic Escherichia coli (ETEC)). The experiment in a line: cell-based or functional assay.
In assay [9] the target is CS1 on ETEC strain #200145 (enterotoxigenic Escherichia coli (ETEC)). The experiment in a line: cell-based or functional assay.
The target in assay [10] is CS4 on ETEC strain (enterotoxigenic Escherichia coli (ETEC)). The assay is described as follows: cell-based or functional assay.
Assay [11] concerns the target CS21 on ETEC strain #100171 (enterotoxigenic Escherichia coli (ETEC)). The experiment in a line: cell-based or functional assay.
Assay [12] addresses CS17 on ETEC strain (enterotoxigenic Escherichia coli (ETEC)). The experiment in a line: cell-based or functional assay.

B1: VHH antibody 1H4 (monomeric) (VHH)
VHH: EVQLVESGGGLVQAGGSLRLSCAASSRTFNHYNIGWFRQAPGKEREFAAAITWNGRSTLYADSVKGRFTISRDNAKNTVYLQMNSLKPEDTAVYYCATLTTWEHKWEYNSQGQGTQVTVSS
Consider B1, for which, in [1], the Kd was 18.3 nM. In assay [1], the off-rate constant (koff) is 0.000513 s⁻¹. Besides, the kon in assay [1] amounted to 28100 M⁻¹ s⁻¹. The MRHA IC100 in [2] amounted to 100 µg/mL; in assay [3] it was 100 µg/mL; in assay [4] it was 200 µg/mL; in [5] it was 3.12 µg/mL; in [6], 25 µg/mL; in [7], 100 µg/mL. In addition, the MRHA IC100 was determined as 100 µg/mL in [8]; 100 µg/mL in assay [9]; 25 µg/mL in [10]; 25 µg/mL in [11]; 6.25 µg/mL in [12].

B2: trimeric 2R215 (VHH)
chain: QVQLQESGGGLVQAGGSLRLSCAASGNIFQDAEMGWYRQAPGKEREFVATIAYGGNTNYADSVKGRFTISRDNAKNTVYLQMNSLKPEDTAVYYCAVYTGVYYDRTTGGYVAFEYWGQGTQVTVSSGGGGSGGGGSGGGGSQVQLQESGGGLVQAGGSLRLSCAASGNIFQDAEMGWYRQAPGKEREFVATIAYGGNTNYADSVKGRFTISRDNAKNTVYLQMNSLKPEDTAVYYCAVYTGVYYDRTTGGYVAFEYWGQGTQVTVSSGGGGSGGGGSGGGGSQVQLQESGGGLVQAGGSLRLSCAASGNIFQDAEMGWYRQAPGKEREFVATIAYGGNTNYADSVKGRFTISRDNAKNTVYLQMNSLKPEDTAVYYCAVYTGVYYDRTTGGYVAFEYWGQGTQVTVSSHHHHHH
As for B2, in [4], the Caco2 adhesion assay: concentration at which adhesion was inhibited stood at 0.567 µM and the MRHA IC100 was found to be 2.5 µM.

B3: dimeric 2R215 (VHH)
chain: QVQLQESGGGLVQAGGSLRLSCAASGNIFQDAEMGWYRQAPGKEREFVATIAYGGNTNYADSVKGRFTISRDNAKNTVYLQMNSLKPEDTAVYYCAVYTGVYYDRTTGGYVAFEYWGQGTQVTVSSGGGGSGGGGSGGGGSGGGGSGGGGSGGGGSQVQLQESGGGLVQAGGSLRLSCAASGNIFQDAEMGWYRQAPGKEREFVATIAYGGNTNYADSVKGRFTISRDNAKNTVYLQMNSLKPEDTAVYYCAVYTGVYYDRTTGGYVAFEYWGQGTQVTVSSHHHHHH
In assay [4], B3 showed a Caco2 adhesion assay: concentration at which adhesion was inhibited of 1.8 µM and an MRHA IC100 of 1.25 µM.

Values taken from US20220025022A1.
